Experimental data from FireProtDB (doi:10.1021/bi050502v).

B1: Apolipophorin-3b, P10762 (parent)
chain: MNTLLAVLMLAVAAQARPDAAGHVNIAEAVQQLNHTIVNAAHELHETLGLPTPDEALNLLTEQANAFKTKIAEVTTSLKQEAEKHQGSVAEQLNRFARNLNNSIHDAATSAQPADQLNSLQSALTNVGHQWQTSQPRPSVAQEAWAPVQSALQEAAEKTKEAAANLQNSIQSAVQKPAN

Variants of: B1
Conditions: Locusta migratoria, pH 7.4, CD, Na2HPO4 KH2PO4 10 mM 2 mM, NaCl 127 mM, reversible: yes, structure 1LS4, whole UniProt chain shown; for ddG of mutation (higher = less stable) / denaturant midpoint (higher = more stable) / unfolding free energy: 25 °C, GdnHCl; for Tm / change of melting temperature, mutant - wild type (higher = more stable): Thermal

Variant: L33K
- ddG of mutation (higher = less stable): 1.36 kcal/mol
- denaturant midpoint (higher = more stable): 0.2 M
- unfolding free energy: 0.69 kcal/mol
- Tm: 37 °C
- change of melting temperature, mutant - wild type (higher = more stable): -16 °C

Variant: A155K
- ddG of mutation (higher = less stable): 1.69 kcal/mol
- denaturant midpoint (higher = more stable): 0.16 M
- unfolding free energy: 0.36 kcal/mol
- Tm: 38 °C
- change of melting temperature, mutant - wild type (higher = more stable): -15 °C

Variant: T47A T159A
- ddG of mutation (higher = less stable): 1.06 kcal/mol
- denaturant midpoint (higher = more stable): 0.37 M
- unfolding free energy: 0.99 kcal/mol

Variant: T159A
- ddG of mutation (higher = less stable): 1.32 kcal/mol
- denaturant midpoint (higher = more stable): 0.28 M
- unfolding free energy: 0.73 kcal/mol
- Tm: 44 °C
- change of melting temperature, mutant - wild type (higher = more stable): -9 °C

Variant: T47A
- ddG of mutation (higher = less stable): -0.6 kcal/mol
- denaturant midpoint (higher = more stable): 0.62 M
- unfolding free energy: 2.65 kcal/mol
- Tm: 57 °C
- change of melting temperature, mutant - wild type (higher = more stable): 4 °C
